Values quoted from earlier work, collected in publication PMC2288786 (BMC Structural Biology, 2008).

Biological target: CaM
Conditions: previously observed for full-length MBP; ref [18],[21]
Description: Background The myelin sheath is a multilamellar membrane structure wrapped around the axon, enabling the saltatory conduction of nerve impulses in vertebrates. […] In this study, we focus on a 19-mer synthetic peptide from the predicted calmodulin-binding segment near the C-terminus of human myelin basic protein. […] The binding of the ...

Kd in words: low μM range
B1: full-length myelin basic protein: full-length myelin basic protein of earlier studies (protein, UniProt P02686 1-304, looked up)
chain: MGNHAGKRELNAEKASTNSETNRGESEKKRNLGELSRTTSEDNEVFGEADANQNNGTSSQDTAVTDSKRTADPKNAWQDAHPADPGSRPHLIRLFSRDAPGREDNTFKDRPSESDELQTIQEDSAATSESLDVMASQKRPSQRHGSKYLATASTMDHARHGFLPRHRDTGILDSIGRFFGGDRGAPKRGSGKDSHHPARTAHYGSLPQKSHGRTQDENPVVHFFKNIVTPRTPPPSQGKGRGLSLSRFSWGAEGQRPGFGYGGRASDYKSAHKGFKGVDAQGTLSKIFKLGGRDSRSGSPMARR
modifications: full-length
notes: full-length myelin basic protein of earlier studies
